In patent US20210388087A1 (Chugai, published 2021):
Residue numbers refer to the chain shown, from its start. Names and notes keep the numbering of the source.

T1: Human CD3eg linker (human)
T1 construct: single-chain construct; also called recombinant human CD3
T1 chain: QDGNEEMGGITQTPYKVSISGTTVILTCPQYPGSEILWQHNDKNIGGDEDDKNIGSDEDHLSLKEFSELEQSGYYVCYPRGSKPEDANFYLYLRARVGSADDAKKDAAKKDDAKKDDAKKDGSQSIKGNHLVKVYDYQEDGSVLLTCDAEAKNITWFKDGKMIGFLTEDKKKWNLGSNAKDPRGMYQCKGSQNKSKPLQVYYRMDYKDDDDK

B1: dBBDu183H H93S/dBBDu072L (antibody, name in Kabat numbering, V domains shown)
VH: QVQLVESGGGLVQPGRSLRLSCAASGFTFSNAWMHWVRQAPGKGLEWVAQIKDKGNAYAAYYAPSVKGRFTISRDDSKNSIYLQMNSLKTEDTAVYYCSYVHYASASTVLPAFGVDAWGQGTTVTVSS
VL: DIVMTQSPLSLPVTPGEPASISCQASQELVHMNRNTYLHWYQQKPGQAPRLLIYKVSNRFPGVPDRFSGSGSGTDFTLKISRVEAEDVGVYYCAQGTSVPFTFGQGTKLEIK
B2: dBBDu183H K64S/dBBDu072L (antibody, name in Kabat numbering, V domains shown)
VH: B1 VH with K67S, S99H
VL: B1 VL
B3: dBBDu183H L100dD/dBBDu072L (antibody, name in Kabat numbering, V domains shown)
VH: B1 VH with S99H, L110D
VL: B1 VL
B4: dBBDu183H L100dE/dBBDu072L (antibody, name in Kabat numbering, V domains shown)
VH: B1 VH with S99H, L110E
VL: B1 VL
B5: dBBDu183H H96E/dBBDu072L (antibody, name in Kabat numbering, V domains shown)
VH: B1 VH with S99H, H102E
VL: B1 VL
B6: dBBDu183H K64N/dBBDu072L (antibody, name in Kabat numbering, V domains shown)
VH: B1 VH with K67N, S99H
VL: B1 VL
B7: dBBDu183H H96F/dBBDu072L (antibody, name in Kabat numbering, V domains shown)
VH: B1 VH with S99H, H102F
VL: B1 VL
B8: dBBDu183H H96V/dBBDu072L (antibody, name in Kabat numbering, V domains shown)
VH: B1 VH with S99H, H102V
VL: B1 VL
B9: dBBDu183H L100dK/dBBDu072L (antibody, name in Kabat numbering, V domains shown)
VH: B1 VH with S99H, L110K
VL: B1 VL
B10: dBBDu183H H96G/dBBDu072L (antibody, name in Kabat numbering, V domains shown)
VH: B1 VH with S99H, H102G
VL: B1 VL
B11: dBBDu183H K64E/dBBDu072L (antibody, name in Kabat numbering, V domains shown)
VH: B1 VH with K67E, S99H
VL: B1 VL
B12: dBBDu183H K64R/dBBDu072L (antibody, name in Kabat numbering, V domains shown)
VH: B1 VH with K67R, S99H
VL: B1 VL
B13: dBBDu183H L100dN/dBBDu072L (antibody, name in Kabat numbering, V domains shown)
VH: B1 VH with S99H, L110N
VL: B1 VL
B14: dBBDu183H H93V/dBBDu072L (antibody, name in Kabat numbering, V domains shown)
VH: B1 VH with S99V
VL: B1 VL
B15: dBBDu183H H96S/dBBDu072L (antibody, name in Kabat numbering, V domains shown)
VH: B1 VH with S99H, H102S
VL: B1 VL
B16: dBBDu183H L100dS/dBBDu072L (antibody, name in Kabat numbering, V domains shown)
VH: B1 VH with S99H, L110S
VL: B1 VL
B17: dBBDu183H L100dG/dBBDu072L (antibody, name in Kabat numbering, V domains shown)
VH: B1 VH with S99H, L110G
VL: B1 VL
B18: dBBDu183H H96W/dBBDu072L (antibody, name in Kabat numbering, V domains shown)
VH: B1 VH with S99H, H102W
VL: B1 VL
B19: dBBDu183H K64G/dBBDu072L (antibody, name in Kabat numbering, V domains shown)
VH: B1 VH with K67G, S99H
VL: B1 VL
B20: dBBDu183H L100dQ/dBBDu072L (antibody, name in Kabat numbering, V domains shown)
VH: B1 VH with S99H, L110Q
VL: B1 VL
B21: dBBDu183H K64H/dBBDu072L (antibody, name in Kabat numbering, V domains shown)
VH: B1 VH with K67H, S99H
VL: B1 VL
B22: dBBDu183H K64Q/dBBDu072L (antibody, name in Kabat numbering, V domains shown)
VH: B1 VH with K67Q, S99H
VL: B1 VL
B23: dBBDu183H H96Y/dBBDu072L (antibody, name in Kabat numbering, V domains shown)
VH: B1 VH with S99H, H102Y
VL: B1 VL
B24: dBBDu183H H93W/dBBDu072L (antibody, name in Kabat numbering, V domains shown)
VH: B1 VH with S99W
VL: B1 VL
B25: dBBDu183H L100dV/dBBDu072L (antibody, name in Kabat numbering, V domains shown)
VH: B1 VH with S99H, L110V
VL: B1 VL
B26: dBBDu183H H96K/dBBDu072L (antibody, name in Kabat numbering, V domains shown)
VH: B1 VH with S99H, H102K
VL: B1 VL
B27: dBBDu183H K64T/dBBDu072L (antibody, name in Kabat numbering, V domains shown)
VH: B1 VH with K67T, S99H
VL: B1 VL
B28: dBBDu183H H93T/dBBDu072L (antibody, name in Kabat numbering, V domains shown)
VH: B1 VH with S99T
VL: B1 VL
B29: dBBDu183H K64V/dBBDu072L (antibody, name in Kabat numbering, V domains shown)
VH: B1 VH with K67V, S99H
VL: B1 VL
B30: dBBDu183H H96Q/dBBDu072L (antibody, name in Kabat numbering, V domains shown)
VH: B1 VH with S99H, H102Q
VL: B1 VL
B31: dBBDu183H H96T/dBBDu072L (antibody, name in Kabat numbering, V domains shown)
VH: B1 VH with S99H, H102T
VL: B1 VL
B32: dBBDu183H L100dT/dBBDu072L (antibody, name in Kabat numbering, V domains shown)
VH: B1 VH with S99H, L110T
VL: B1 VL
B33: dBBDu183H H96N/dBBDu072L (antibody, name in Kabat numbering, V domains shown)
VH: B1 VH with S99H, H102N
VL: B1 VL
B34: dBBDu183H K64W/dBBDu072L (antibody, name in Kabat numbering, V domains shown)
VH: B1 VH with K67W, S99H
VL: B1 VL
B35: dBBDu183H L100dR/dBBDu072L (antibody, name in Kabat numbering, V domains shown)
VH: B1 VH with S99H, L110R
VL: B1 VL
B36: dBBDu183H H96D/dBBDu072L (antibody, name in Kabat numbering, V domains shown)
VH: B1 VH with S99H, H102D
VL: B1 VL
B37: dBBDu183H K64Y/dBBDu072L (antibody, name in Kabat numbering, V domains shown)
VH: B1 VH with K67Y, S99H
VL: B1 VL
B38: dBBDu183H K64D/dBBDu072L (antibody, name in Kabat numbering, V domains shown)
VH: B1 VH with K67D, S99H
VL: B1 VL
B39: dBBDu183H H93Y/dBBDu072L (antibody, name in Kabat numbering, V domains shown)
VH: B1 VH with S99Y
VL: B1 VL
B40: dBBDu183H H96R/dBBDu072L (antibody, name in Kabat numbering, V domains shown)
VH: B1 VH with S99H, H102R
VL: B1 VL
B41: dBBDu183H L100dH/dBBDu072L (antibody, name in Kabat numbering, V domains shown)
VH: B1 VH with S99H, L110H
VL: B1 VL
B42: dBBDu183H L100dY/dBBDu072L (antibody, name in Kabat numbering, V domains shown)
VH: B1 VH with S99H, L110Y
VL: B1 VL
B43: dBBDu183H L100dW/dBBDu072L (antibody, name in Kabat numbering, V domains shown)
VH: B1 VH with S99H, L110W
VL: B1 VL
B44: dBBDu183H K64F/dBBDu072L (antibody, name in Kabat numbering, V domains shown)
VH: B1 VH with K67F, S99H
VL: B1 VL
B45: dBBDu183H L100dF/dBBDu072L (antibody, name in Kabat numbering, V domains shown)
VH: B1 VH with S99H, L110F
VL: B1 VL

Biological target: T1, Human CD3eg linker
Test: SPR, vs unmutated H183/L072

Row | fold change of affinity | Binder
1 | 0 fold | B1
2 | 1 fold | B2
3 | 1 fold | B3
4 | 0.7 fold | B4
5 | 0 fold | B5
6 | 1 fold | B6
7 | 0 fold | B7
8 | 0 fold | B8
9 | 1.8 fold | B9
10 | 0.2 fold | B10
11 | 1 fold | B11
12 | 0.9 fold | B12
13 | 1.2 fold | B13
14 | 0 fold | B14
15 | 0.2 fold | B15
16 | 1.2 fold | B16
17 | 2 fold | B17
18 | 0 fold | B18
19 | 1 fold | B19
20 | 1.1 fold | B20
21 | 1 fold | B21
22 | 1 fold | B22
23 | 0 fold | B23

Row | fold change of affinity | Binder
24 | 0 fold | B24
25 | 1 fold | B25
26 | 0.6 fold | B26
27 | 1.1 fold | B27
28 | 0 fold | B28
29 | 1.1 fold | B29
30 | 0.3 fold | B30
31 | 0 fold | B31
32 | 1.3 fold | B32
33 | 0 fold | B33
34 | 1 fold | B34
35 | 1.8 fold | B35
36 | 0 fold | B36
37 | 1 fold | B37
38 | 1 fold | B38
39 | 0 fold | B39
40 | 0.3 fold | B40
41 | 1.3 fold | B41
42 | 1.4 fold | B42
43 | 1.7 fold | B43
44 | 1.3 fold | B44
45 | 1.3 fold | B45
